Experiment [1] has as its target recombinant N-terminally 7×His tagged biotinylated Oxr1p (bio-Oxr1p) (yeast) (UniProt Q08952). In words: BLI; bio-Oxr1p (10 µg/ml) immobilised on streptavidin biosensors, V1ΔH^(ΔOxr1) with or without recombinant subunit C in solution; 20 mM Tris-HCl pH 7.0, 0.5 mM EDTA, β-mercaptoethanol, 5.0 mg/ml BSA; 23 °C; global fitting. On the technique in general: In BLI a coated tip is dipped into the sample, and binding shifts an interference pattern.

Experiment [2] concerns the target wild-type yeast V-ATPase reconstituted into lipid nanodiscs (V1VoND) (yeast (endogenous) | yeast) (UniProt P16140).
Experiment [3] shares this target. The source holds these as a separate data set.
Experiment [4] deals with T1, V1 subunit B (the B subunit of the open catalytic site), in the purified V-ATPase (yeast (endogenous), UniProt P16140 1-517).
T1 construct: V1 subunit B, yeast; source: endogenous, part of the purified yeast V-ATPase in lipid nanodiscs
T1 sequence (P16140 whole entry): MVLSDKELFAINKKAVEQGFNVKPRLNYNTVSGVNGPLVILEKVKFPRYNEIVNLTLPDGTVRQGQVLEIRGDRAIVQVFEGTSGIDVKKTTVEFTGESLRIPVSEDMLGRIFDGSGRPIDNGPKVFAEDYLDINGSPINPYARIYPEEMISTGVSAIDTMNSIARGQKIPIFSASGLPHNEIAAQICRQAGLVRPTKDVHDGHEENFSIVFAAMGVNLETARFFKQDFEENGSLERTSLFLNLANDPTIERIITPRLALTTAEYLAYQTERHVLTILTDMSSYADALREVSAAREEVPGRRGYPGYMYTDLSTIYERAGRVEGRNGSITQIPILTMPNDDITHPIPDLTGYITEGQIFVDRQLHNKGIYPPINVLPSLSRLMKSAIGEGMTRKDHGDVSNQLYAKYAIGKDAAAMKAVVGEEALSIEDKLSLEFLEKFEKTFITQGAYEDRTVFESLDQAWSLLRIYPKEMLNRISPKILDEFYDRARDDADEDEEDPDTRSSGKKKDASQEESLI
In words: cryo-EM structure; V-ATPase in lipid nanodiscs (~1-2 mg/ml) vitrified with a twofold molar excess of Oxr1p, no nucleotide; 3-D classes at ~8.2 Å; Oxr1p density in the rotary state 1 class (~31% of particles). As to conditions: both partners purified.

For experiment [5], the target named is V1ΔH^(ΔOxr1) in the presence of recombinant subunit C (yeast (endogenous) | yeast) (UniProt P16140). As to the kind of experiment: BLI; α-mouse IgG Fc capture biosensors loaded with α-MBP antibody, then MBP-HWT or MBP-H_(chim) (5 µg/ml); 40 nM V1ΔH in solution with buffer, Oxr1p (equimolar), subunit C (twofold molar excess) or Oxr1p + subunit C; TBSE plus 0.5 mg/ml BSA; 23 °C.

The values that follow come from article PMC11094088, “Molecular mechanism of Oxr1p mediated disassembly of yeast V-ATPase” (EMBO Reports, 2024).

On to “V1ΔH^(ΔOxr1) in the presence of recombinant subunit C (from UniProt P16140 1-517; P32610 1-256; P22203 1-233; P39111 1-118; P48836 1-114; P31412 1-392) (complex)”, for which the equilibrium dissociation constant (Kd) (usually a measure of binding affinity in units of concentration) in experiment [1] stood at 7 nM.

As for “V1ΔH, V1 subcomplex without subunit H (FLAG-tagged subunit G), from the oxr1Δvma13Δ background (from UniProt P16140 1-517; P32610 1-256; P22203 1-233; P39111 1-118; P48836 1-114)”, the Kd in experiment [1] was 67 nM.

B1: Oxidation Resistance protein 1 (Oxr1p), recombinant (natural protein, yeast, UniProt Q08952 1-273, looked up)
chain: MFGVKDAIFKIKRSIAGTDSSDSTAYTTASESSPQLKDSHNPFRNKTTSERTIVEEGSLPPVRLNGYLPSTKNKLLTPEMCDEIRTLMPTRIQLYTEWNLLYSLEQHGSSLHSLYSNVAPDSKEFRRVGYVLVIKDRKNGIFGAYSNEAFHPNEHRQYTGNGECFLWKLDKVPDVNISEKEESEQEGKEGKEEGDKEERWRFSGYPYTGVNEFAIYCTSEFLSMGAGDGHYGLLCDDGLLHGVSNPCQTYGNEVLSKEGKKFSIVALEVWRVG
notes: Oxr1p, yeast TLDc domain protein; construct as described in Khan et al, 2022; also called recombinant Oxr1p; source: E. coli BL21DE3, purified (Ni-NTA, Superdex-75 SEC); not shown: 7xHis, N-terminal, kept
B1 came in with an ATPase activity of purified V-ATPase in nanodiscs left after incubation with a twofold molar excess of Oxr1p, 30 min to 16 h, relative to the starting activity in experiment [2] of 70%. The loss of ATPase activity of purified V-ATPase after 30 min with a twofold molar excess of Oxr1p alone in experiment [3] turned out to be 30%. In addition, the binding result in experiment [4] was “binds”. In addition, in experiment [5], the percent reduction of V1ΔH binding to immobilised H (chim) (subunit C and Oxr1p, against Oxr1p only) turned out to be 25%; the percent reduction of V1ΔH binding to immobilised wild-type H (subunit C and Oxr1p, against Oxr1p only) was found to be 60%.
